Experimental findings from article PMC10560217, “Structural conservation of insulin/IGF signalling axis at the insulin receptors level in Drosophila and humans” (Nature Communications, 2023) are described below.

This series concerns the molecule itself. Nature of the series: cryo-EM structure; equal volumes of 10 uM dmIR-ECD and 50 uM DILP5 (five-molar hormone excess) in 50 mM Tris, 150 mM NaCl, pH 7.4; reconstruction at 4.0 A.

B1: Drosophila insulin receptor ectodomain (dmIR-ECD) (domain or fragment, Drosophila melanogaster, UniProt P09208 264-1309, looked up)
chain: LPAHQQHLLHNDIADGLDKTALSVSGTQSRWTRSESNPTMRLSQNVKPCKSMDIRNMVSHFNQLENCTVIEGFLLIDLINDASPLNRSFPKLTEVTDYIIIYRVTGLHSLSKIFPNLSVIRGNKLFDGYALVVYSNFDLMDLGLHKLRSITRGGVRIEKNHKLCYDRTIDWLEILAENETQLVVLTENGKEKECRLSKCPGEIRIEEGHDTTAIEGELNASCQLHNNRRLCWNSKLCQTKCPEKCRNNCIDEHTCCSQDCLGGCVIDKNGNESCISCRNVSFNNICMDSCPKGYYQFDSRCVTANECITLTKFETNSVYSGIPYNGQCITHCPTGYQKSENKRMCEPCPGGKCDKECSSGLIDSLERAREFHGCTIITGTEPLTISIKRESGAHVMDELKYGLAAVHKIQSSLMVHLTYGLKSLKFFQSLTEISGDPPMDADKYALYVLDNRDLDELWGPNQTVFIRKGGVFFHFNPKLCVSTINQLLPMLASKPKFFEKSDVGADSNGNRGSCGTAVLNVTLQSVGANSAMLNVTTKVEIGEPQKPSNATIVFKDPRAFIGFVFYHMIDPYGNSTKSSDDPCDDRWKVSSPEKSGVMVLSNLIPYTNYSYYVRTMAISSELTNAESDVKNFRTNPGRPSKVTEVVATAISDSKINVTWSYLDKPYGVLTRYFIKAKLINRPTRNNNRDYCTEPLVKAMENDLPATTPTKKISDPLAGDCKCVEGSKKTSSQEYDDRKVQAGMEFENALQNFIFVPNIRKSKNGSSDKSDGAEGAALDSNAIPNGGATNPSRRRRDVALEPELDDVEGSVLLRHVRSITDDTDAFFEKDDENTYKDEEDLSSNKQFYEVFAKELPPNQTHFVFEKLRHFTRYAIFVVACREEIPSEKLRDTSFKKSLCSDYDTVFQTTKRKKFADIVMDLKVDLEHANNTESPVRVRWTPPVDPNGEIVTYEVAYKLQKPDQVEEKKCIPAADFNQTAGYLIKLNEGLYSFRVRANSIAGYGDFTEVEHIKVEPPPSYA
modifications: N-glycosylation at Asn606 (traces in the cryoEM reconstruction)
notes: a starting methionine was added in front; codon optimised; Asn335 is the first residue seen in the maps; Described as an (alpha-beta)2 homodimer; each protomer comes from one expressed precursor chain (alpha and beta subunits), protomers linked by disulfides; Mass used for ITC 233538 g/mol (the dimer); also called dmIR ectodomain; source: Sf9 cells, baculovirus, secreted into conditioned media, …
For orientation: stoichiometry N means the number of molecules, sites or subunits per partner or assembly. As to B1, the “stoichiometry N” value came out at 2.
